Experimental data from PMC2756588.

Columns and labels:
Test in all cases: SPOT array
[1] = target: T1, Sla1-2, P32790; settings: median of control spots 712
T1 sequence (P32790 60-140, looked up): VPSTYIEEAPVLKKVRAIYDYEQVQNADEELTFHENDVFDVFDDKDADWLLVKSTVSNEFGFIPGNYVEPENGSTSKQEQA

[2] = target: GST; settings: median of control spots 978
[3] = target: T2, Fus1, P11710; settings: median of control spots 1200
T2 sequence (P11710 432-512, looked up): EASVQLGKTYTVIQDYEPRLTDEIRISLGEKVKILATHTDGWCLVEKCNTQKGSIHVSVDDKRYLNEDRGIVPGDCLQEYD

[4] = target: T3, Lsb4, P32793; settings: median of control spots 397
T3 sequence (P32793 402-468, looked up): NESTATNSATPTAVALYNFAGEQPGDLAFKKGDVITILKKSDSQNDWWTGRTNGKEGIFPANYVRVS

[5] = target: Bem1-2, P29366; settings: median of control spots 4347
Bem1-2, P29366, sequence (P29366 139-227): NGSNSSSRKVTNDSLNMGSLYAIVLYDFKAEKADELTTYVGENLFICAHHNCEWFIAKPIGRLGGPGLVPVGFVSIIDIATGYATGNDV

[6] = target: T4, Cdc25, P04821; settings: median of control spots 969
T4 sequence (P04821 50-136, looked up): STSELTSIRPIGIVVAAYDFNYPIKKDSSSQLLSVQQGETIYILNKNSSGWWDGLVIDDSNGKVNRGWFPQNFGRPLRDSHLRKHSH

[7] = target: T5, Bzz1-1, P38822; settings: median of control spots 4446
T5 sequence (P38822 478-572, looked up): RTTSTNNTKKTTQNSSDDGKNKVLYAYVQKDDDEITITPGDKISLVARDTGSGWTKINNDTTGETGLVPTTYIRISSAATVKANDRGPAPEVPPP

[8] = target: T6, Boi1, P38041; settings: median of control spots 1162
T6 sequence (P38041 1-86, looked up): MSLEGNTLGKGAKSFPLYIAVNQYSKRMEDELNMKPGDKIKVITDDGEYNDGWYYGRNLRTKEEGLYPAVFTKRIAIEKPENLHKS

[9] = target: T7, Hse1, P38753; settings: median of control spots 1727
T7 sequence (P38753 208-285, looked up): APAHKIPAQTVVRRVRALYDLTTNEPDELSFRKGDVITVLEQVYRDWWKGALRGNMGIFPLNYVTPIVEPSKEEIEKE

[10] = target: T8, Pex13, P80667; settings: median of control spots 1341
T8 sequence (P80667 295-386, looked up): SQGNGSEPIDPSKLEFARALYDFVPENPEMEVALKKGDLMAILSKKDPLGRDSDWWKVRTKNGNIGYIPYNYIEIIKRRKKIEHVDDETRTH

[11] = target: Sho1, P40073; settings: median of control spots 1148
Sho1, P40073, sequence (P40073 287-367): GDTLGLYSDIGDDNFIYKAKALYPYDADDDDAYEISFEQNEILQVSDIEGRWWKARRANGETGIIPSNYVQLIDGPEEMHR

[12] = target: T9, Bbc1, P47068; settings: median of control spots 796
T9 sequence (P47068 1-78, looked up): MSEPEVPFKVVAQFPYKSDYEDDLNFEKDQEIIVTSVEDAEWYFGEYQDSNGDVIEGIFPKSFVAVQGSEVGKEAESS

[13] = target: T10, Pin3, Q06449; settings: median of control spots 2171
T10 sequence (Q06449 53-122, looked up): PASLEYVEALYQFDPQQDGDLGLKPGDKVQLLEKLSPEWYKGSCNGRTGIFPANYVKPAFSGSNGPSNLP

[14] = target: T11, Boi2, P39969; settings: median of control spots 1161
T11 sequence (P39969 32-116, looked up): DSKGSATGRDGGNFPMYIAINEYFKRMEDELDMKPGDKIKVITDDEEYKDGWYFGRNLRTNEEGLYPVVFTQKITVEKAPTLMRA

[15] = target: Bem1-1, P29366; settings: median of control spots 4282
Bem1-1, P29366, sequence (P29366 55-141): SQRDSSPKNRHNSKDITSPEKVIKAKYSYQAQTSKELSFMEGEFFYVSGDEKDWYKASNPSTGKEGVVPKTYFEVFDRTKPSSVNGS

[16] = target: Rvs167, P39743; settings: median of control spots 2707
Rvs167, P39743, sequence (P39743 419-482): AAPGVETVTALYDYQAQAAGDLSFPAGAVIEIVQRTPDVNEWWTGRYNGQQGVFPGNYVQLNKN

[17] = target: T12, Cyk3, Q07533; settings: median of control spots 1451
T12 sequence (Q07533 1-83, looked up): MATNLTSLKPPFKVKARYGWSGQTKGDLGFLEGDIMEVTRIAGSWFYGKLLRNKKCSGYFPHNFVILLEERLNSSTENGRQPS

[18] = target: T13, Myo5, Q04439; settings: median of control spots 471
T13 sequence (Q04439 1072-1160, looked up): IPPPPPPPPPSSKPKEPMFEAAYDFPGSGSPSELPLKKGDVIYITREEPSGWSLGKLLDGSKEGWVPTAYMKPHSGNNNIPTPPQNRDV

[19] = target: Myo3, P36006; settings: median of control spots 468
[20] = target: T14, Lsb1, P53281; settings: median of control spots 388
T14 sequence (P53281 45-122, looked up): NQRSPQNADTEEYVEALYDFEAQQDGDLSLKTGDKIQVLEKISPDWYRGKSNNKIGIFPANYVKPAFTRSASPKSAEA

[21] = target: T15, Hof1, Q05080; settings: median of control spots 4086
T15 sequence (Q05080 590-669, looked up): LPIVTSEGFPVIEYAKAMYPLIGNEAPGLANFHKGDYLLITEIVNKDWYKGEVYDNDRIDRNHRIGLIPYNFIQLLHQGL

[22] = target: T16, Bzz1-2, P38822; settings: median of control spots 4538
T16 sequence (P38822 568-633, looked up): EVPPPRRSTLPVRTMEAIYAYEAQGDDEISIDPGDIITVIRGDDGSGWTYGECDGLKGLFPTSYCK

[23] = target: T17, Abp1, P15891; settings: median of control spots 935
T17 sequence (P15891 535-592, looked up): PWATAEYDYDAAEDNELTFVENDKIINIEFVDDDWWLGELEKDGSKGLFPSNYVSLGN

[24] = target: T18, Nbp2, Q12163; settings: median of control spots 357
T18 sequence (Q12163 103-180, looked up): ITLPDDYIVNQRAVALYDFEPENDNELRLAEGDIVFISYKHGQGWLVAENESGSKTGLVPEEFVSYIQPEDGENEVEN

[25] = target: T19, Bud14, P27637; settings: median of control spots 956
T19 sequence (P27637 247-328, looked up): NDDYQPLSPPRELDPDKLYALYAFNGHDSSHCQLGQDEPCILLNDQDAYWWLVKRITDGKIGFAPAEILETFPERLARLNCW

[26] = target: T20, Sla1-3, P32790; settings: median of control spots 5475
T20 sequence (P32790 344-424, looked up): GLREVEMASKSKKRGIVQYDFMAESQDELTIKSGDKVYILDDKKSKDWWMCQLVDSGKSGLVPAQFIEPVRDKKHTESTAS

[27] = target: T21, Lsb3, P43603; settings: median of control spots 406
T21 sequence (P43603 385-451, looked up): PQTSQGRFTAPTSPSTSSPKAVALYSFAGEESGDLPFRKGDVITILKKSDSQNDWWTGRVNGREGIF

Row | Binder | SPOT intensity [1] | SPOT intensity [2] | SPOT intensity [3] | SPOT intensity [4] | SPOT intensity [5] | SPOT intensity [6] | SPOT intensity [7] | SPOT intensity [8] | SPOT intensity [9] | SPOT intensity [10] | SPOT intensity [11] | SPOT intensity [12] | SPOT intensity [13] | SPOT intensity [14] | SPOT intensity [15] | SPOT intensity [16] | SPOT intensity [17] | SPOT intensity [18] | SPOT intensity [19] | SPOT intensity [20] | further results
1 | SKAKRPKFLLDLQIK | 2 | 2 | 3 | 5 | 0 | 26 | 1 | 2 | 2 | 5 | 114 | 48 | 4 | 0 | 0 | 0 | 4 | 0 | 6 | 7 | SPOT intensity [21]: 2; SPOT intensity [22]: 1; SPOT intensity [23]: 78; SPOT intensity [24]: 0; SPOT intensity [25]: 6; SPOT intensity [26]: 19; SPOT intensity [27]: 2
2 | KKIRLIFTYPSTVGR | 6 | 0 | 73 | 28 | 0 | 163 | 2 | 61 | 4 | 12 | 253 | 277 | 31 | 13 | 0 | 0 | 10 | 12 | 41 | 50 | SPOT intensity [21]: 0; SPOT intensity [22]: 2; SPOT intensity [23]: 196; SPOT intensity [24]: 258; SPOT intensity [25]: 9; SPOT intensity [26]: 8; SPOT intensity [27]: 20
3 | MKRSRPSRSIPYTTP | 6 | 0 | 5 | 6 | 39 | 9 | 1 | 3 | 14 | 10 | 54 | 25 | 34 | 2 | 0 | 6 | 1 | 2 | 5 | 0 | SPOT intensity [21]: 0; SPOT intensity [22]: 29; SPOT intensity [23]: 32; SPOT intensity [24]: 0; SPOT intensity [25]: 7; SPOT intensity [26]: 35; SPOT intensity [27]: 1
4 | TKFRISLGLPVGAIM | 9 | 0 | 32 | 46 | 0 | 108 | 0 | 1 | 8 | 29 | 367 | 43 | 65 | 0 | 0 | 0 | 0 | 14 | 69 | 44 | SPOT intensity [21]: 0; SPOT intensity [22]: 2; SPOT intensity [23]: 289; SPOT intensity [24]: 159; SPOT intensity [25]: 6; SPOT intensity [26]: 3; SPOT intensity [27]: 28
